This is an account of results in patent publication US20140193915, “COMPOSITIONS AND METHODS FOR CUSTOM SITE-SPECIFIC DNA RECOMBINASES” (Monsanto Technology, LLC, published 2014).

Data set [1] has as its target T1, sN-TALER IV-1 (GinH106Y-TALE13) (synthetic).
T1 chain: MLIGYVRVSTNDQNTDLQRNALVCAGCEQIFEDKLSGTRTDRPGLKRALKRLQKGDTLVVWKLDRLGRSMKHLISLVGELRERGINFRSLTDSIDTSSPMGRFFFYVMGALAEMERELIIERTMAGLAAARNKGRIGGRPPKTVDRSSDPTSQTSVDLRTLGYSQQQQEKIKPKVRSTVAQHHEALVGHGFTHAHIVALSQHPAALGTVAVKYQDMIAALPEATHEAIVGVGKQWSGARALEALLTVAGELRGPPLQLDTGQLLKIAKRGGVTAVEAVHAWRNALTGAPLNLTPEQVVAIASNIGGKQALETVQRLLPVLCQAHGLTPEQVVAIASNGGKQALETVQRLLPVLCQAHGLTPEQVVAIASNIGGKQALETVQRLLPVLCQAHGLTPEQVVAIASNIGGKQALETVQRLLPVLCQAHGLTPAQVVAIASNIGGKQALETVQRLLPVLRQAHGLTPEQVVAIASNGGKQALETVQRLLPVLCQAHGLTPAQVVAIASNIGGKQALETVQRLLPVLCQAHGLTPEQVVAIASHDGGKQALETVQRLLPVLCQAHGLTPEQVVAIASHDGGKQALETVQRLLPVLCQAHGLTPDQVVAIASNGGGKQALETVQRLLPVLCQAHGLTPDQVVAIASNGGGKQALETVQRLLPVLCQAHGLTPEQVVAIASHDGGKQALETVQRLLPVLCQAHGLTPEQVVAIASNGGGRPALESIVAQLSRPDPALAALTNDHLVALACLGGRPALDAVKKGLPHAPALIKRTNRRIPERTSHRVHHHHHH
Put plainly: cell_activity; E. coli; sequenced. To be noted: tags: 6-His; chain copies: 2 per site, tetramer in synapsis (stated). The protocol:
To test for recombination, E. coli DH5alpha cells were co-transformed with different combinations of TALER expression construct and TALER reporter construct pairs (Tables 6 and 7). The N-TALER expression and reporter constructs were in an approximate 1:1 mass ratio during the transformation. The co-transformed bacteria were plated on media with chloramphenicol, kanamycin, and X-gal then incubated at 37° C. for 18 to 36 hours. Control samples consisted of transformations using the reporter construct alone. Control transformants were similarly plated. The bacterial transformation protocol was either heat shock or electroporation per standard molecular biology techniques.
PCR was used to confirm that the predicted recombination had occurred in colonies which were white or sectored. PCR primers were designed so that a PCR product of approximately 877 bp (depending on the length of the spacers) would be produced from the non-recombined reporter constructs, and a PCR product of approximately 470 bp would be produced from reporter constructs that had undergone N-TALER-mediated recombination. Standard colony PCR was performed on white, blue, and sectored colonies from several plates representing different pairs of N-TALER expression construct and reporter construct co-transformation combinations.
To confirm that the recombination occurred as predicted, several of the PCR products were sequenced. Sequencing results for PCR products generated from white colonies from the sN-TALER IV-1 and Gin18TALE+1; sN-TALER IV-1 and Gin20TALE+0; or sN-TALER IV-1 and Gin20TALE+10 reporter constructs are shown in FIG. 7. No mismatches were detected relative to the predicted recombinase core sequence in any of the PCR products sequenced thereby confirming a base-perfect recombination with N-TALERs (the few single-nucleotide mismatches detected in the sN-TALER IV-1 and Gin20TALE+0 combination were rechecked and consequently dismissed as sequencing error).

The target in the next data set is T2, sN-TALER IIb-1 (synthetic).
T2 chain: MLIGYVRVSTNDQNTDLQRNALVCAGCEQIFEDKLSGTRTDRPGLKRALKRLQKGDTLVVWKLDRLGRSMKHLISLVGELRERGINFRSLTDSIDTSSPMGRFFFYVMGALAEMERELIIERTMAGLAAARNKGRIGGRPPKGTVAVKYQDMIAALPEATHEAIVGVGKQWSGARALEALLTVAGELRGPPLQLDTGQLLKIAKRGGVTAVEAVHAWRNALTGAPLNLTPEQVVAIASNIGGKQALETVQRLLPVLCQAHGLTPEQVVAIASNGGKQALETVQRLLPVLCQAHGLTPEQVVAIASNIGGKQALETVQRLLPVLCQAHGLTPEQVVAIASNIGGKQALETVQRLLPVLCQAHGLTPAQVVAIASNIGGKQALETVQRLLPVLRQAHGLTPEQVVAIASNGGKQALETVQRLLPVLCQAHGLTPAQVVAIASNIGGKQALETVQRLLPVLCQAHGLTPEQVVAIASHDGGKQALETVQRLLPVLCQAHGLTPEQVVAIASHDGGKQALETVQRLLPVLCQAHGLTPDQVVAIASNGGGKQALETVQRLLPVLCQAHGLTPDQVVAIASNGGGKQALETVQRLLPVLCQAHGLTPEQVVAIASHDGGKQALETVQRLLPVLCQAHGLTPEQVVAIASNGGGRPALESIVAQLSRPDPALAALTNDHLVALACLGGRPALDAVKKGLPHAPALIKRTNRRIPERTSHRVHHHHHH
The data set is described as follows: cell_activity; E. coli. To be noted: tags: 6-His. The method in brief:
(§1)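 DH5alpha cells co-transformed (heat shock or electroporation) with N-TALER expression and reporter plasmids at ~1:1 mass ratio; reporter alone as control. Plated on chloramphenicol/kanamycin/X-gal, grown 37° C. for 18 to 36 hours; recombination scored by colony colour.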

In another data set the target is T3, sN-TALER IIa-1 (synthetic).
T3 chain: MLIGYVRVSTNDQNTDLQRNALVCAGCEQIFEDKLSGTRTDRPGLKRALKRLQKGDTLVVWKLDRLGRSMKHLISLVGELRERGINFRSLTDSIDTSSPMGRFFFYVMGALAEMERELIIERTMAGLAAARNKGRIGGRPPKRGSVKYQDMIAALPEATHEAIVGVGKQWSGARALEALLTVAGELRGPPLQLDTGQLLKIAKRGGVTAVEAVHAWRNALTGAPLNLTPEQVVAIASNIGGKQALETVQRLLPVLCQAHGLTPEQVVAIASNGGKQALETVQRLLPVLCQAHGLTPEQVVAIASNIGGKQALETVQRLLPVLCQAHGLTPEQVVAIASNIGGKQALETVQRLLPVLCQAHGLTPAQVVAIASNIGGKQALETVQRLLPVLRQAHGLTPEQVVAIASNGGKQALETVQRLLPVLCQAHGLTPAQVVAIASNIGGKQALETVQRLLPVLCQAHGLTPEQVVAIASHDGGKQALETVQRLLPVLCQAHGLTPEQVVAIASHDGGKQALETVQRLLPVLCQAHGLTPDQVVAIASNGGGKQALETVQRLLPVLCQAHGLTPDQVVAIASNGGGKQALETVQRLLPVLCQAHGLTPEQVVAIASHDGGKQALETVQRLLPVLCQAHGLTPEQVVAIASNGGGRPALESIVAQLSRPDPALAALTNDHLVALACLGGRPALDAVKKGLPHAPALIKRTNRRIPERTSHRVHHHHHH
Put plainly: cell_activity; E. coli. To be noted: tags: 6-His. In a few lines:
as §1

B1: Gin18TALE+1 (dsDNA)
DNA 1: AGAAGGTATTTATATCCAAAACCATGGTTTACAATATAAATACCTTCT
DNA 2: AGAAGGTATTTATATTGTAAACCATGGTTTTGGATATAAATACCTTCT
As for B1, the activity in data set [1] worked out at 1 score.

B2: Gin20TALE+0 (dsDNA)
DNA 1: AGAAGGTATTTATATCCAAAACCATGGTTTACAGTATAAATACCTTCT
DNA 2: AGAAGGTATTTATACTGTAAACCATGGTTTTGGATATAAATACCTTCT
Regarding B2, the activity in data set [1] amounted to 1 score.

B3: Gin18TALE+0 (dsDNA)
DNA 1: AGAAGGTATTTATACCAAAACCATGGTTTACATATAAATACCTTCT
DNA 2: AGAAGGTATTTATATGTAAACCATGGTTTTGGTATAAATACCTTCT
As to B3, the activity with sN-TALER IIb-1 came to 3 score; with sN-TALER IIa-1 it was 4 score.
